Consider one molecule from patent US20160280796A1.

The target of assay [1] is human CD3 (CD3ε of the TCR/CD3 complex) on purified human CD3 T cells (human) (UniProt P07766). Kind of assay: flow cytometry on purified human CD3 T cells, antibody at 1 µg/ml. (In flow cytometry, cells or beads pass a laser one at a time.)
Assay [2] has the same target. Kind of assay: flow cytometry on purified human CD3 T cells, antibody at 10 µg/ml.
The target is the same in assay [3]. Kind of assay: flow cytometry on purified human CD3 T cells, antibody at 0.1 µg/ml.
The target is the same in assay [4]. Nature of the assay: flow cytometry on CD3+ Jurkat cells, 10 µg/mL, FL4: anti-His mouse mAb + APC anti mIgG, RED2-HLin (right panel); unstained Jurkat 7.61.
Assay [5] shares this target. Kind of assay: flow cytometry on CD3+ Jurkat cells, 10 µg/mL, FL1: anti-His FITC, GRN-HLin (left panel). DOUBTFUL: the printed value disagrees with the histogram, which lies right of ESK1+L2K, and equals the second row of the left table of FIGURE 8.

B1: control bi-specific antibody (irrelevant human IgG1 antibody ET901 as scFv replacing ESK1 scFv, with anti-CD3 scFv) (bispecific antibody, part only; not given: ET901 control scFv, part only)
chain, part: DVQLVQSGAEVKKPGASVKVSCKASGYTFTRYTMHWVRQAPGQGLEWIGYINPSRGYTNYADSVKGRFTITTDKSTSTAYMELSSLRSEDTATYYCARYYDDHYCLDYWGQGTTVTVSSGEGTSTGSGGSGGSGGADDIVLTQSPATLSLSPGERATLSCRASQSVSYMNWYQQKPGKAPKRWIYDTSKVASGVPARFSGSGSGTDYSLTINSLEAEDAATYYCQQWSSNPLTFGGGTKVEIK
In the case of B1, the Median fluorescence intensity (MFI) in assay [1] was found to be 153 MFI; in assay [2], 188 MFI; in assay [3], 26.2 MFI. The Geom. Mean in assay [4] was 94.3; in assay [5] it was 47.9.
